Source: patent KR20140021799A (dated 2014)

Target: T1, CD2 항원 (Jurkat T 세포 / T 림프구 표면) (UniProt P06729 25-351, limits assumed)
T1 construct: whole, on cells; also called CD2-positive Jurkat T 세포
T1 sequence (looked up): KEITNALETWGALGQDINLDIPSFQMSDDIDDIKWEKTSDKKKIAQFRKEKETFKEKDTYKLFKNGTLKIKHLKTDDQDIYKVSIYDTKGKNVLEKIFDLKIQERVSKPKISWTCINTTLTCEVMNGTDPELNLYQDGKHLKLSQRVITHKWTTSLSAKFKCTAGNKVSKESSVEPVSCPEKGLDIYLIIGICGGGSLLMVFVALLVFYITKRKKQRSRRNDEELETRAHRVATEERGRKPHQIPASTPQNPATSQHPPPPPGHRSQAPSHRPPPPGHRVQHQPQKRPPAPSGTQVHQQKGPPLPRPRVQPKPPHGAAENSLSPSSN
Test: cell-based ELISA on Jurkat T cells, FcR blocker, anti-6X HIS tag-HRP detection

binding result: binds
B1: anti-CD20 scFv-LFA3-1 (other)
chain: FSQQIYGTWKGDVTFHVPSNVPLKEVLWKKQKDKVAELENSEFRAFSDFKGRVYLDTVSGSLTINSLQSEDFGEYEMESPNITDTMKFFLYVLESLPSPTEFGGGGSGGSGSGGGQVQLQQPGAELVKPGASVKMSCKASGYTFTSYNMHWVKQTPGRGLEWIGAIYPGNGDTSYNQKFKGKATLTADKSSSTAYMQLSSLTSEDSAVYYCARSTYYGGDWYFNVWGAGTTVTVSAGGGGSGGGGSGGGGSQIVLSQSPAILSASPGEKVTMTCRASSSVSYIHWFQQKPGSSPKPWIYATSNLASGVPVRFSGSGSGTSYSLTISRVEAEDAATYYCQQWTSNPPTFGGGTKLEIK
